The chains are these.
B1: Azoarcus group I ribozyme (parent)
chain: GUGCCUUGCGCCGGGAAACCACGCAAGGGAUGGUGUCAAAUUCGGCGAAACCUAAGCGCCCGCCCGGGCGUAUGGCAACGCCGAGCCAAGCUUCGGCGCCUGCGCCGAUGAAGGUGUAGAGACUAGACGGCACCCACCUAAGGCAAACGCUAUGGUGAAGGCAUAGUCCAGGGAGUGGCGAAAGUCACACAAACCGG

Our source for the reverse-splicing fitness values is the RNAGym collection of RNA variant scans (doi:10.1093/molbev/msab373).

The variants in this data set derive from B1. The data set is described as follows: reverse-splicing fitness (ratio to wild type); higher = more active; in vitro selection; Mg2+ level not given. Summed up: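 An in vitro group I ribozyme library with randomized positions was T7-transcribed and gel-purified. In triplicate, 10 pmol RNA in EPPS pH 7.5 was reacted with 50 pmoles of a 30-nt RNA substrate for 1 h at 37 °C across several added MgCl2 levels (1–48 mM), then stopped with EDTA. Products were reverse transcribed from a substrate-complementary primer, PCR-amplified and sequenced (HiSeq 4000). Fitness is a variant's read proportion after selection over that before, normalised to wild type.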
Consider C82A A111C A120C A145U C150G C169G U176G, for which the reverse-splicing fitness was found to be 0.00725. Next, A111C A120U A145G C169A: 0.00474. Consider C82G A111G A120G A145U U176C, for which the reverse-splicing fitness came out at 0.0242.

For the variant C82G A111C A120C C150U U176A, the reverse-splicing fitness worked out at 0.0157. In the case of C82U A111U A145U C169U U176A, the reverse-splicing fitness amounted to 0.0125. As to C82U A111U A120U A145G C169G, the reverse-splicing fitness stood at 0.00363. Turning to C82G A111U A120U C169A U176A, the reverse-splicing fitness amounted to 0.00362. To C82U A111C A145U C150G C169A U176C belongs 0.0103; to C82U A111U A120C A145G C150G C169A U176A, 0.0133; to C82U A111C A120U A145G C150U C169G U176G, 0.0025. Turning to C82G A111U A120G C150G C169U U176G, the reverse-splicing fitness was determined as 0.00592. Regarding C82U A120C A145U C150A C169G U176C, the reverse-splicing fitness came out at 0.0081. Next, C82U A111G C169U U176A: 0.0145; C82A A111G A120C C150A C169G U176G: 0.00675; C82U A111G A120G A145G C150U U176A: 0.00859.

In the case of C82A A111G A120C C150G C169G U176G, the reverse-splicing fitness is 0.00561. Next, A111G A120G A145C C150A C169A U176A: 0.0135; C82G A111U A145C C150A C169U: 0.0105.

For the variant C82U A111G A120C C150U U176C, the reverse-splicing fitness amounted to 0.0218. Regarding C82U A111U A145U C150A C169U U176C, the reverse-splicing fitness worked out at 0.0118. Turning to C82G A111G C150U U176C, the reverse-splicing fitness came to 0.144. In the case of C82A A111U, the reverse-splicing fitness is 0.299.

Regarding A111G A120G A145C C150U C169A U176C, the reverse-splicing fitness turned out to be 0.0168. As for C82U A111U A120C C150U U176G, the reverse-splicing fitness stood at 0.00696. C82G A111G C150G U176G: the reverse-splicing fitness turned out to be 0.00548. Regarding A111C A120G U176G, the reverse-splicing fitness turned out to be 0.00629. Regarding A111U A120C A145G C150A C169U U176A, the reverse-splicing fitness turned out to be 0.0208.

With C82U A111U A120G A145C C150U C169A U176G, the reverse-splicing fitness came to 0.00482. For C82G A111G A120C A145G C169U, the reverse-splicing fitness is 0.015. On to C82U A111C A120G A145G C150A C169A U176G, for which the reverse-splicing fitness is 0.00573. Next, A111C C150U C169G U176C: 0.0234; C82A A111G A120G C150G U176A: 0.0058; C82A A111G C150U C169A U176G: 0.00716.

Turning to C82G A111U A120C A145G C169G U176A, the reverse-splicing fitness was found to be 0.0187. For the variant C82G A111U A120C A145G C169G U176C, the reverse-splicing fitness was determined as 0.0281. As for A111C A120C A145G C150G C169A U176C, the reverse-splicing fitness worked out at 0.0116. As for C82U A111C A120G A145U C150U C169G, the reverse-splicing fitness came to 0.00846.

C82A A120C C150A C169G: the reverse-splicing fitness came out at 0.0106. With C82A A120C A145C C150U C169A U176C, the reverse-splicing fitness worked out at 0.00786. Turning to A120U A145G C150G C169U, the reverse-splicing fitness came to 0.0537. Consider A111U C150U C169A U176G, for which the reverse-splicing fitness amounted to 0.00669.

For C82A A111G A120G A145C C150G C169U U176G, the reverse-splicing fitness is 0.00529.

Take C82G A111G A120C C150U: the reverse-splicing fitness came out at 0.0417. Consider C82U C150A U176A, for which the reverse-splicing fitness stood at 0.0603. To C82G A111C C150A C169U U176C belongs 0.0178. To C82A A111C C150A C169A belongs 0.00979. Next, A111C A120U A145C C150G C169U U176G: 0.0023; C82A A111G A120C C150A C169U U176A: 0.0162. With C82G A145G C169A U176C, the reverse-splicing fitness was determined as 0.0249. Next, C82U A111C A120G A145C C150U C169U U176C: 0.0072. On to A111G A120U A145G C150U C169G U176G, for which the reverse-splicing fitness is 0.00263. C82A A111U A120C A145G C150G U176C: the reverse-splicing fitness stood at 0.0126. Consider A111U A120C A145U C150A C169U U176G, for which the reverse-splicing fitness worked out at 0.00493. For the variant C82U A111G C150A U176G, the reverse-splicing fitness is 0.0117. On to C82U A120G A145U C150G C169G U176C, for which the reverse-splicing fitness came to 0.00534. For C82G A111C A120U A145C C150G C169G U176A, the reverse-splicing fitness is 0.00317. C82G A111G A120C C150U C169G: the reverse-splicing fitness stood at 0.00909.

For the variant A111G A120C A145U C150A U176A, the reverse-splicing fitness came to 0.0685. For the variant A111G A120G A145C C169A U176A, the reverse-splicing fitness amounted to 0.0345. Turning to C82A A111C A120G A145U C150U C169G U176G, the reverse-splicing fitness is 0.00522. With A111U A120G C150G C169G U176C, the reverse-splicing fitness was found to be 0.00471. To A120G A145C C150G C169U U176C belongs 0.054; to A120G A145C C150G C169U U176A, 0.0356; to C82U A111U A120U A145U C150G C169G U176C, 0.00288. Regarding C82U A111G A145U C150U C169G U176G, the reverse-splicing fitness is 0.00489. As to C82U A111C A120C A145C C150G C169G U176C, the reverse-splicing fitness is 0.00799.

Turning to C82A A111U A120C A145G C150A C169G U176G, the reverse-splicing fitness is 0.00858. C82A A111G A120G A145U C150G C169G U176G: the reverse-splicing fitness stood at 0.00446.

Take A111G A120C A145G C150U C169A: the reverse-splicing fitness turned out to be 0.0158. For C82A A120U A145G C150U C169U U176A, the reverse-splicing fitness amounted to 0.00414. Take C82A A145G C150A C169U U176C: the reverse-splicing fitness was determined as 0.0137. Turning to A145U C150G C169G U176A, the reverse-splicing fitness is 0.0118. For C82U A111G C150U U176G, the reverse-splicing fitness stood at 0.0286. Take A145C C150A: the reverse-splicing fitness stood at 0.321. Next, C82U A111G A120C A145U C150G: 0.00964; C82U A111C A120G A145U C150A U176A: 0.0119; C82A A111U A145U U176A: 0.0937. For C82A A111C C169U U176A, the reverse-splicing fitness is 0.0162. Consider C82G A111C C150U C169G, for which the reverse-splicing fitness was 0.00815. Consider C82G A111G A120C A145G U176C, for which the reverse-splicing fitness was 0.0418. As to C82A A111C C169U, the reverse-splicing fitness stood at 0.0139. To C82G A120C A145U C150G belongs 0.0201; to C82A A111U A120U A145G C169U U176A, 0.00414.

C82A A111G A120U C150U C169U U176C: the reverse-splicing fitness came out at 0.00428.
